The target of this experiment is T1, monoclonal antibody (mAb) specific for the N-terminus amino acid sequence …, HRP-labeled, employed in the … (horseradish peroxidase (HRP) label, site not stated).
T1 construct: Mouse IgG2b / kappa from a hybridoma; also called HRP-labeled mAb; selected mAb
Briefly: competitive ELISA: selection peptide against coated …-K-biotin for the HRP-labeled mAb; 10 independent runs. The protocol: All incubation steps were performed in the dark with constant shaking at 300 rpm and followed by five times wash of the wells using washing buffer ([…], 50 mM NaCl, pH 7.2). A 10-point calibration curve was plotted using a 4-parameter logistic curve fit of the selection peptide dilutions. Data were analyzed using the SoftMax Pro version 7.1.0 software (Molecular Devices).
Antibody specificity was evaluated using synthetic peptides and calculated as percentage of signal inhibition of two-fold diluted selection and deselection peptides (Table 1). Unspecific binding was tested using a nonsense screening peptide (biotin-[…] (SEQ ID NO: 23)). IC50 (half-maximal inhibition concentration) was determined from 10 independent runs of the 10-point calibration curve. The technical lower limit of detection (LLOD) was calculated as the mean signal of 60 determinations of a blank sample (i.e., assay buffer) plus 3× standard deviation (SD). The upper limit of quantification (ULOQ) was determined from 10 independent runs of the calibration curve and determined as the highest concentration of selection peptide determined with a recovery percentage within 100±20% of the nominal concentration and a CV<20%. […] Two-fold dilutions of four human serum samples quantified in three independent runs were used to evaluate assay linearity, calculated as percentage of recovery of the undiluted sample. […]
A general note: In an ELISA, binding on a coated surface is turned into a signal by an enzyme label.

The term IC50 denotes the concentration at which inhibition is half-maximal. Read a high IC50 as weaker potency in that assay.

Ends that are not written are not given here.

T1 sequence (VH, as listed by the source, chain 1 of 2): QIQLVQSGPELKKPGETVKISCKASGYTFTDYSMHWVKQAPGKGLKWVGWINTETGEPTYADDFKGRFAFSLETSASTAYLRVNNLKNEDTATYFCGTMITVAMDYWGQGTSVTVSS
T1 sequence (VL, as listed by the source, chain 2 of 2): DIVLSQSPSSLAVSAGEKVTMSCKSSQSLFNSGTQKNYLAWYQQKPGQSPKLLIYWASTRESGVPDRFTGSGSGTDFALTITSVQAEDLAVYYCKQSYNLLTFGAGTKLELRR

B1: Selection peptide VDTLPQKPRE (peptide)
peptide: VDTLPQKPRE
modifications: not fully specified
notes: Synthetic peptide (Genscript); the end 75 follows from the ten residues; also called calibrator peptide
B1 returned a half-inhibitory concentration (IC50) of 0.0369 mg/L.
